Test results taken from publication PMC8385704.

Biological target: ACE2-Fc fusion protein (extracellular domain of human ACE2 and the Fc region of human IgG1) (human) (UniProt Q9BYF1)
Test: ELISA

ACE2-Fc fusion protein (extracellular domain of human ACE2 and the Fc region of human IgG1) (human), sequence (Q9BYF1 18-740): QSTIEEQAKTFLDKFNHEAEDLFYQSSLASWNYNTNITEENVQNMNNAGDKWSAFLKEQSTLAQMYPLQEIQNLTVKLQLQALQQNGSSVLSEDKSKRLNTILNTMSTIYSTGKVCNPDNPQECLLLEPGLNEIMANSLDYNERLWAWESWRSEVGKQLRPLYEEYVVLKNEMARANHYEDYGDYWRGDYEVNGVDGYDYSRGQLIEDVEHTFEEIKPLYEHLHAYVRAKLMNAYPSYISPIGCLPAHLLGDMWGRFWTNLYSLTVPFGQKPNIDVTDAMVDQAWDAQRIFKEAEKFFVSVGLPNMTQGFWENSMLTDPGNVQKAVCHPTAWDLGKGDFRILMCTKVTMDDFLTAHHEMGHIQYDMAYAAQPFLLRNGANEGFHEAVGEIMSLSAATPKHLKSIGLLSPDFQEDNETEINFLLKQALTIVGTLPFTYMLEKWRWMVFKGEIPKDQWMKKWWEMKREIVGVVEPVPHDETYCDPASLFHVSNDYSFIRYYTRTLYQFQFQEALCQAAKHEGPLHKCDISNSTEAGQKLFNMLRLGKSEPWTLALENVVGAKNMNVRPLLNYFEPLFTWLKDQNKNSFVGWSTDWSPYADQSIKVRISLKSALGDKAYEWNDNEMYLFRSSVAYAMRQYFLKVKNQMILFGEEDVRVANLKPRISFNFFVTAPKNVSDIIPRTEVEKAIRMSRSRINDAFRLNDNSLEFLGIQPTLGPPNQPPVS
recombinant S1-subunit or RBD of HCoV-NL63 (domain or fragment), sequence (Q6Q1S2 19-717 limits assumed): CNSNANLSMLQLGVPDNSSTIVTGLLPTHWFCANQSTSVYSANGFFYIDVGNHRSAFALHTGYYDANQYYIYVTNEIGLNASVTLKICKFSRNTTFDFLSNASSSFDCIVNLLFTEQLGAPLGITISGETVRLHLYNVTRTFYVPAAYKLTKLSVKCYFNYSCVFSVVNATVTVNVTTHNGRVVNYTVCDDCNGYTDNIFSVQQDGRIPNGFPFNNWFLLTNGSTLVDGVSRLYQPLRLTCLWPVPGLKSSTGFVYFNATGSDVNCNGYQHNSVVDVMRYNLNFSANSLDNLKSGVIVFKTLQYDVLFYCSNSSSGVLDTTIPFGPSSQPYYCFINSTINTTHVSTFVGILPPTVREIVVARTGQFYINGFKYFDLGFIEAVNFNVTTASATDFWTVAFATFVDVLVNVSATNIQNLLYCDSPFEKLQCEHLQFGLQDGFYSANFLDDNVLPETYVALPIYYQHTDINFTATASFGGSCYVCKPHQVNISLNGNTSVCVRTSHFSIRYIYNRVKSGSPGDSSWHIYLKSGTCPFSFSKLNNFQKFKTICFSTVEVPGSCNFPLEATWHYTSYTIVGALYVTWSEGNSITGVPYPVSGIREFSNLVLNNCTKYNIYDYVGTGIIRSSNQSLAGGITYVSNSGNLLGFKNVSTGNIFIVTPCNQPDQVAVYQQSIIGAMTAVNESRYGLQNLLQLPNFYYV

## recombinant S1-subunit or RBD of SARS-CoV (domain or fragment)
  EC50: 1.1 nM

## recombinant S1-subunit or RBD of SARS-CoV-2 (domain or fragment)
  EC50: 11.8 nM

## recombinant S1-subunit or RBD of HCoV-NL63 (domain or fragment)
  EC50: 24.2 nM
